Laboratory results taken from patent publication US20250333497A1 (University of California, published 2025).

What was measured:
[1] = biological target: T1, domain A-deleted PLXDC1 (PLXDC1-dA) (Homo sapiens (Human), UniProt Q8IUK5 128-500); assay: staining of transfected cells (FIG. 3C-H)
T1 construct: also called mutant with Domain A deleted
Source text: (§1) Both full length PLXDC1 and Domain A deleted PLXDC1 (PLXDC1-dA) have an epitope tag on the N-terminus.

[2] = biological target: T2, Full length PLXDC1 (PLXDC1-Full) (Homo sapiens (Human), UniProt Q8IUK5 19-500); assay: staining of transfected cells (FIG. 3-4)
T2 construct: also called full PLXDC1 protein
T2 sequence: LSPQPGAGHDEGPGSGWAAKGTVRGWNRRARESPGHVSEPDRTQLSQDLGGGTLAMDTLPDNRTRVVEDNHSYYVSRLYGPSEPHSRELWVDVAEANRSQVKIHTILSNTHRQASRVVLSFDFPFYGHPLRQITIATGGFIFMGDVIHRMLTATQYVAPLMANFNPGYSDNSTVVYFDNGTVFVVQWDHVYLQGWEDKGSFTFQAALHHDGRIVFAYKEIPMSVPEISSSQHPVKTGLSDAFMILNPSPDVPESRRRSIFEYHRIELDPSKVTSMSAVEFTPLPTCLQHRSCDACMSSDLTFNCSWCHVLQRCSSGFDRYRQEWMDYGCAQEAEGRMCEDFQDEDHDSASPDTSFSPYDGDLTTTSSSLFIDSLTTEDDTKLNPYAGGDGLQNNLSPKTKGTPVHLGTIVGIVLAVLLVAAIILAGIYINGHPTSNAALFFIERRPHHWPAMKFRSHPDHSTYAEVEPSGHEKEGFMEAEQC
Source text: as §1

[3] = biological target: T1, domain A-deleted PLXDC1 (PLXDC1-dA); assay: staining of transfected cells (FIG. 4A-H)
Source text: as §1

| Binder | binding result [1] | binding result [2] | binding result [3] |
| --- | --- | --- | --- |
| A001 (antibody, V domains shown, VH/VL only; also called 3-C11) VH: EVQLLESGGGLVQPGGSLRLSCAASGFTFSSYAMSWVRQAPGKGLEWVSTIYASGATTYYADSVKGRFTISRDNSKNTLYLQMNSLRAEDTAVYYCARLKLYHAAFDIWGQGTLVTVSS VL: DIQMTQSPSSLSASVGDRVTITCRASQDISSYLNWYQQKPGKAPKLLIYTASSLQSGVPSRFSGSGSGTDFTLTISSLQPEDFATYYCQQSYSYPLTFGQGTKVEIK | no binding | binds | – |
| A003 (antibody, V domains shown, VH/VL only; also called 5-E2) VH: QVQLVESGGGVVQPGRSLRLSCAASGFTFRDYGMHWVRQAPGKGLEWVAVISYHGRNEYYANSVKGRFTISRDNSKNTLYLQMNSLRAEDTAVYYCARGAYGDDFDVWGQGTLVTVSS VL: not shown | no binding | binds | – |
| A004 (antibody, V domains shown, VH/VL only; also called 2-H2) VH: QVQLVESGGGVVQPGRSLRLSCAASGFTFSDYGMHWVRQAPGKGLEWVAVISYEGSNEYYADSVKGRFTISRDNSKNTLYLQMNSLRAEDTAVYYCARGSEGSGFDVWGQGTLVTVSS VL: DIQMTQSPSSLSASVGDRVTITCRASQRISNYLNWYQQKPGKAPKLLIYAASSLQSGVPSRFSGSGSGTDFTLTISSLQPEDFATYYCQQSYSPPYTFGQGTKVEIK | – | binds | no binding |
| A005 (antibody, V domains shown, VH/VL only; also called 3-G6) VH: QVQLVESGGGVVQPGRSLRLSCAASGFTFSDYGMHWVRQAPGKGLEWVAVISYDGSRKYYANSVKGRFTISRDNSKNTLYLQMNSLRAEDTAVYYCARGSYSDGFDVWGQGTLVTVSS VL: DIQMTQSPSSLSASVGDRVTITCRASQSISRYLNWYQQKTGKAPKLLIYGASSLQSGVPSRFSGSGSGTDFTLTISSLQPEDFATYYCQQSYSTPYTFGQGTKVEIK | – | binds | no binding |
| A002 (antibody, V domains shown, VH/VL only; also called 4-A8) VH: EVQLLESGGGLVQPGGSLRLSCAASGFTFKNYAMSWVRQAPGKGLEWVSAISASGGYTYYADSVKGRFTISRDNSKNTLYLQMNSLRAEDTAVYYCARGRWGAFDYWGQGTLVTVSS VL: QSVLTQPPSVSGAPGQRVTISCTGSSSNIGSGYDVHWYQQLPGTAPKLLIYGNRNRPSGVPDRFSGSKSGTSASLAITGLQAEDEADYYCQSYDSSLKTWVFGGGTKLTVL | no binding | binds | – |
| A006 (antibody, V domains shown, VH/VL only; also called 3-G7) VH: QVQLVQSGAEVKKPGSSVKVSCKASGGTFSTEYISWVRQAPGQGLEWMGRIIPVLGITNYAQKFQGRVTITADESTSTAYMELSSLRSEDTAVYYCARHLGPPYLVTYSHGFDVWGQGTLVTVSS VL: EIVMTQSPATLSVSPGERATLSCRASQSLGTNLAWYQQKPGQAPRLLIYGASTRATGIPARFSGSGSGTEFTLTISSLQSEDFAVYYCQQYYEAPPTFGQGTKVEIK | – | binds | no binding |
| A007 (antibody, V domains shown, VH/VL only; also called 8-A7) VH: EVQLLESGGGLVQPGGSLRLSCAASGFTFRNYAMSWVRQAPGKGLEWVSSISGGGINTYYADSVKGRFTISRDNSKNTLYLQMNSLRAEDTAVYYCARVRSYSGPGYFDYWGQGTLVTVSS VL: EIVMTQSPATLSVSPGDRATLSCRASRSVSSNLAWYQQKPGQAPRLLIYGASTRATGIPARFSGSGSGTEFTLTISSLQSEDFAVYYCQQYYNWPLTFGQGTKVEIK | – | binds | no binding |
